# Experimental data: publication PMC9482650, “Quantitative fragmentomics allow affinity mapping of interactomes” (Nature Communications, 2022)
# What was measured:
# Experiment in all cases: holdup assay
# Parameters in all cases: key: below the threshold = too weak to quantify, mostly under pKd 3.1 to 4
# Conditions in all cases: plain residues with an end cap or a label only (N-terminal biotin on a linker: ado-ado)
# PICK1, Q9NRD5 = target: PICK1, Q9NRD5
# GRIP2_4, Q9C0E4 = target: GRIP2_4, Q9C0E4
# APBA1_1, Q02410 = target: T1, APBA1_1, Q02410
# T1 sequence (Q02410 651-752, limits assumed, looked up): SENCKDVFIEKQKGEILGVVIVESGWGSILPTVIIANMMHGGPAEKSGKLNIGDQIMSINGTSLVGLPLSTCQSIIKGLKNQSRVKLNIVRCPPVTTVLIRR
# DLG3_2, Q92796 = target: T2, DLG3_2, Q92796
# T2 sequence (Q92796 221-321, limits assumed, looked up): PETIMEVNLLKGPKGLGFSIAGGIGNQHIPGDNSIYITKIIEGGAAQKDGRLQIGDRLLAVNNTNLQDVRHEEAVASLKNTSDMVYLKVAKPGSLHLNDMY
# NHERF3_3, Q5T2W1 = target: T3, NHERF3_3, Q5T2W1
# T3 sequence (Q5T2W1 238-333, limits assumed, looked up): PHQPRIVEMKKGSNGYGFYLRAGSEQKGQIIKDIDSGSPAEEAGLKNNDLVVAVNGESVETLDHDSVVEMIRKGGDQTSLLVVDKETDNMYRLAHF
# NOS1, P29475 = target: NOS1, P29475
# PDLIM1, O00151 = target: PDLIM1, O00151
# APBA1_2, Q02410 = target: T4, APBA1_2, Q02410
# T4 sequence (Q02410 742-832, limits assumed, looked up): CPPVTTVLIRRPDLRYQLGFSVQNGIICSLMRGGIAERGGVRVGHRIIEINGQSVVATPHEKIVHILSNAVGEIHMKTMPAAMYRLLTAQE
# LNX2_2, Q8N448 = target: T5, LNX2_2, Q8N448
# T5 sequence (Q8N448 334-432, limits assumed, looked up): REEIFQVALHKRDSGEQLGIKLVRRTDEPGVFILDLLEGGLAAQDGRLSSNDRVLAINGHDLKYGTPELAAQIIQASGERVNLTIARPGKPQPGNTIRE
# APBA2_1, Q99767 = target: T6, APBA2_1, Q99767
# T6 sequence (Q99767 563-664, limits assumed, looked up): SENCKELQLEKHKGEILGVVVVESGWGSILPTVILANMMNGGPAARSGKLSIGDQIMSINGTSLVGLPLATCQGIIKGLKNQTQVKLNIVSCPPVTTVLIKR
# IL16_3, Q14005 = target: IL16_3, Q14005
# Inadl_8, Q8NI35 = target: Inadl_8, Q8NI35
# HTRA1, Q92743 = target: HTRA1, Q92743
# FRMPD3, Q5JV73 = target: FRMPD3, Q5JV73
# NHERF3_1, Q5T2W1 = target: T7, NHERF3_1, Q5T2W1
# T7 sequence (Q5T2W1 4-100, limits assumed, looked up): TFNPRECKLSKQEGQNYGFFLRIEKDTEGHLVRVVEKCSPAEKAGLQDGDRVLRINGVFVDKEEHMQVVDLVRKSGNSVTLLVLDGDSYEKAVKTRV
# GRIP2_5, Q9C0E4 = target: GRIP2_5, Q9C0E4
# GRID2IP_2, A4D2P6 = target: GRID2IP_2, A4D2P6
# DLG4_2, P78352 = target: DLG4_2, P78352
# GRIP1_5, Q9Y3R0 = target: T8, GRIP1_5, Q9Y3R0
# T8 sequence (Q9Y3R0 568-668, limits assumed, looked up): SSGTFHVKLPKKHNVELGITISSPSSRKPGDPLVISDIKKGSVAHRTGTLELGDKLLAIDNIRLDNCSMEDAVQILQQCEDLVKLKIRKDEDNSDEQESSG
# MPP2, Q14168 = target: T9, MPP2, Q14168
# T9 sequence (Q14168 180-250, limits assumed, looked up): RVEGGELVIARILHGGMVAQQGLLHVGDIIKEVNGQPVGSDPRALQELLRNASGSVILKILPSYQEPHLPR
# GRIP1_3, Q9Y3R0 = target: T10, GRIP1_3, Q9Y3R0
# T10 sequence (Q9Y3R0 247-346, limits assumed, looked up): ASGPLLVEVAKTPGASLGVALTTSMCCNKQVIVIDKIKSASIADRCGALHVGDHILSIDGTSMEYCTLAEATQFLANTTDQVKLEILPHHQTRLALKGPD
# MAGI1_1, Q96QZ7 = target: MAGI1_1, Q96QZ7
# DLG4_1, P78352 = target: DLG4_1, P78352
# SYNJ2BP, P57105 = target: T11, SYNJ2BP, P57105
# T11 sequence (P57105 8-110, limits assumed, looked up): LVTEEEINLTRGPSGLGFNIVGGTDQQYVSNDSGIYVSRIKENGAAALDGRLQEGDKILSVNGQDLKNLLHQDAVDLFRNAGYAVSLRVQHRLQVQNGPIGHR
# RHPN1, Q8TCX5 = target: T12, RHPN1, Q8TCX5
# T12 sequence (Q8TCX5 508-602, limits assumed, looked up): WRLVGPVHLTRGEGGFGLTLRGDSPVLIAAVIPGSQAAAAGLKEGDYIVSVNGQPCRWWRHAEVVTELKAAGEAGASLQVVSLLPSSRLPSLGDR
# DLG2_3, Q15700 = target: DLG2_3, Q15700
# Chain of PICK1, Q9NRD5 (Q9NRD5 17-115): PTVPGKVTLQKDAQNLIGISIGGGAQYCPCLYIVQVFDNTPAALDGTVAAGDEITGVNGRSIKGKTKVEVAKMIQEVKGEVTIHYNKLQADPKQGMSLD
# Chain of NOS1, P29475 (P29475 9-101): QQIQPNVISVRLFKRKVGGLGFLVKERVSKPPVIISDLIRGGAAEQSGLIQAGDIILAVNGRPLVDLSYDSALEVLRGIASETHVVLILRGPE
# Chain of Inadl_8, Q8NI35 (Q8NI35 1425-1530): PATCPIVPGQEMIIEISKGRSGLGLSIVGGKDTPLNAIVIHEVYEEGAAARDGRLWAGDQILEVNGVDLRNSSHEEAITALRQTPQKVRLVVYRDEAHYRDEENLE
# Chain of PDLIM1, O00151 (O00151 1-87): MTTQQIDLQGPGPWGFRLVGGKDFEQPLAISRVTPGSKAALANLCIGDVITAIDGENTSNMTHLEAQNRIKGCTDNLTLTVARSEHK
# Chain of HTRA1, Q92743 (Q92743 360-477): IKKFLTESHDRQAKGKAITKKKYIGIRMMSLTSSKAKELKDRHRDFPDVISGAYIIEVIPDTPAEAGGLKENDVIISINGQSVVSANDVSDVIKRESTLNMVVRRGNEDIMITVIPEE
# Chain of GRID2IP_2, A4D2P6 (A4D2P6 272-370): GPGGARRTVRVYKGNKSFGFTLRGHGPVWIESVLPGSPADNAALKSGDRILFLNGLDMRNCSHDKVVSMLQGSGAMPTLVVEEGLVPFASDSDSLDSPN
# Chain of GRIP2_5, Q9C0E4 (Q9C0E4 544-642): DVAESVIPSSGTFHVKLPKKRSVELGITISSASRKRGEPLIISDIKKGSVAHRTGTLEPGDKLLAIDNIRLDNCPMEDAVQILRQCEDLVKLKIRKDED
# Chain of DLG4_1, P78352 (P78352 62-152): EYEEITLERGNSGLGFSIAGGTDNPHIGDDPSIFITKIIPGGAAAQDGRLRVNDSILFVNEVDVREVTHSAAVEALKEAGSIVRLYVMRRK
# Chain of MAGI1_1, Q96QZ7 (Q96QZ7 1-106): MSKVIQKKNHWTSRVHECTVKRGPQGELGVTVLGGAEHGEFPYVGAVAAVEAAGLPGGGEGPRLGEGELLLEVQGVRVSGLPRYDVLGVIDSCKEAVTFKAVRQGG
# Chain of IL16_3, Q14005 (Q14005 1107-1207): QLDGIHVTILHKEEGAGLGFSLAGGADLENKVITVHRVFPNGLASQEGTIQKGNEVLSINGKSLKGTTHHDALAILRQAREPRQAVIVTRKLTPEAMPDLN
# Chain of FRMPD3, Q5JV73 (Q5JV73 12-100): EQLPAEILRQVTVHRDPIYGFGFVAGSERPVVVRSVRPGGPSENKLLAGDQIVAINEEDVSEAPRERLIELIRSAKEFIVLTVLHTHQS
# Chain of DLG4_2, P78352 (P78352 155-259): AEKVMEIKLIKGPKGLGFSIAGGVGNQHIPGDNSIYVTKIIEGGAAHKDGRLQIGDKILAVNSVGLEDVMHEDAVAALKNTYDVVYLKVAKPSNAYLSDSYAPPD
# Chain of GRIP2_4, Q9C0E4 (Q9C0E4 446-548): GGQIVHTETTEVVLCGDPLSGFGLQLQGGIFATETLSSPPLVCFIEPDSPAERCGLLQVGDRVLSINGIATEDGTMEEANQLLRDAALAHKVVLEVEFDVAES
"pKd (PICK1, Q9NRD5)","pKd (GRIP2_4, Q9C0E4)","pKd (APBA1_1, Q02410)","pKd (DLG3_2, Q92796)","pKd (NHERF3_3, Q5T2W1)","pKd (NOS1, P29475)","pKd (PDLIM1, O00151)","pKd (APBA1_2, Q02410)","pKd (LNX2_2, Q8N448)","pKd (APBA2_1, Q99767)","pKd (IL16_3, Q14005)","pKd (Inadl_8, Q8NI35)","pKd (HTRA1, Q92743)","pKd (FRMPD3, Q5JV73)","pKd (NHERF3_1, Q5T2W1)","pKd (GRIP2_5, Q9C0E4)","pKd (GRID2IP_2, A4D2P6)","pKd (DLG4_2, P78352)","pKd (GRIP1_5, Q9Y3R0)","pKd (MPP2, Q14168)",Binder,also measured
4.22,below the threshold,below the threshold,below the threshold,below the threshold,below the threshold,below the threshold,below the threshold,below the threshold,below the threshold,below the threshold,below the threshold,4.68,below the threshold,5.63,3.51,4.11,below the threshold,below the threshold,below the threshold,"LLQEEWETVM [PTH1R, Q03431]","pKd (GRIP1_3, Q9Y3R0): below the threshold; pKd (MAGI1_1, Q96QZ7): below the threshold; pKd (DLG4_1, P78352): below the threshold; pKd (SYNJ2BP, P57105): below the threshold; pKd (RHPN1, Q8TCX5): 4.41; pKd (DLG2_3, Q15700): below the threshold"
below the threshold,below the threshold,below the threshold,4.08,below the threshold,below the threshold,below the threshold,3.62,below the threshold,below the threshold,below the threshold,below the threshold,3.62,3.5,5.03,below the threshold,3.49,below the threshold,below the threshold,below the threshold,"NNMAFETTHF [SLC5A12, Q1EHB4]","pKd (GRIP1_3, Q9Y3R0): below the threshold; pKd (MAGI1_1, Q96QZ7): below the threshold; pKd (DLG4_1, P78352): below the threshold; pKd (SYNJ2BP, P57105): below the threshold; pKd (RHPN1, Q8TCX5): 4.08; pKd (DLG2_3, Q15700): 3.7"

# The next lines start with the binder.
Binder,"pKd (PICK1, Q9NRD5)","pKd (GRIP2_4, Q9C0E4)","pKd (APBA1_1, Q02410)","pKd (DLG3_2, Q92796)","pKd (NHERF3_3, Q5T2W1)","pKd (NOS1, P29475)","pKd (PDLIM1, O00151)","pKd (APBA1_2, Q02410)","pKd (LNX2_2, Q8N448)","pKd (APBA2_1, Q99767)","pKd (IL16_3, Q14005)","pKd (Inadl_8, Q8NI35)","pKd (HTRA1, Q92743)","pKd (FRMPD3, Q5JV73)","pKd (NHERF3_1, Q5T2W1)","pKd (GRIP2_5, Q9C0E4)","pKd (GRID2IP_2, A4D2P6)","pKd (DLG4_2, P78352)","pKd (GRIP1_5, Q9Y3R0)","pKd (MPP2, Q14168)",also measured
"SSSVNVSSNL [CXCR1, P25024]",4.12,below the threshold,below the threshold,below the threshold,below the threshold,below the threshold,below the threshold,below the threshold,below the threshold,below the threshold,below the threshold,below the threshold,below the threshold,below the threshold,4.43,below the threshold,3.84,below the threshold,below the threshold,below the threshold,"pKd (GRIP1_3, Q9Y3R0): below the threshold; pKd (MAGI1_1, Q96QZ7): below the threshold; pKd (DLG4_1, P78352): below the threshold; pKd (SYNJ2BP, P57105): below the threshold; pKd (RHPN1, Q8TCX5): 3.67; pKd (DLG2_3, Q15700): below the threshold"
"HLSTRQGTCV [ATRNL1, Q5VV63]",below the threshold,below the threshold,below the threshold,4.22,below the threshold,4.07,below the threshold,4.62,5.01,below the threshold,below the threshold,4.25,4.91,below the threshold,3.87,below the threshold,4.05,4.43,below the threshold,below the threshold,"pKd (GRIP1_3, Q9Y3R0): below the threshold; pKd (MAGI1_1, Q96QZ7): below the threshold; pKd (DLG4_1, P78352): 4.33; pKd (SYNJ2BP, P57105): 5.37; pKd (RHPN1, Q8TCX5): 3.65; pKd (DLG2_3, Q15700): 4.19"
